The supplement of paper PMC9233669
Fewer inactive variants are shown than the library holds.

Key:
biotinyl-Phe-oxazolone = experiment: self-aminoacylation, catalytic enhancement (BFO) (fold over background); higher = more active; k-Seq, kA / k0A0; sequences stand for … in GGGAAUGGAUCCACAUCUACGAAUUC…UUCACUGCAGACUUGACGAAGCUG
How it was run: (§1)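 Catalytic enhancement equals the median kA over the uncatalyzed rate, the latter read from the low-activity peak of a bimodal Gaussian fit. Values of kA came from fitting each sequence's fraction reacted to a pseudo-first-order model, with 1000 bootstraps. Reacted RNA was captured with streptavidin and quantified by triplicate qPCR and Illumina sequencing after 90 minutes at room temperature with 2–1250 μM biotinyl-aminoacyl-oxazolone and 0.43 μM mutagenized RNA pools bearing a 21-nt variable region.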

biotinyl-Ile-oxazolone = experiment: self-aminoacylation, catalytic enhancement (BIO) (fold over background); higher = more active; k-Seq, kA / k0A0; sequences stand for … in GGGAAUGGAUCCACAUCUACGAAUUC…UUCACUGCAGACUUGACGAAGCUG
How it was run: as §1

biotinyl-Met-oxazolone = experiment: self-aminoacylation, catalytic enhancement (BMO) (fold over background); higher = more active; k-Seq, kA / k0A0; sequences stand for … in GGGAAUGGAUCCACAUCUACGAAUUC…UUCACUGCAGACUUGACGAAGCUG
How it was run: as §1

biotinyl-Val-oxazolone = experiment: self-aminoacylation, catalytic enhancement (BVO) (fold over background); higher = more active; k-Seq, kA / k0A0; sequences stand for … in GGGAAUGGAUCCACAUCUACGAAUUC…UUCACUGCAGACUUGACGAAGCUG
How it was run: as §1

biotinyl-Leu-oxazolone = experiment: self-aminoacylation, catalytic enhancement (BLO) (fold over background); higher = more active; k-Seq, kA / k0A0; sequences stand for … in GGGAAUGGAUCCACAUCUACGAAUUC…UUCACUGCAGACUUGACGAAGCUG
How it was run: as §1

biotinyl-Trp-oxazolone = experiment: self-aminoacylation, catalytic enhancement (BWO) (fold over background); higher = more active; k-Seq, kA / k0A0; sequences stand for … in GGGAAUGGAUCCACAUCUACGAAUUC…UUCACUGCAGACUUGACGAAGCUG
How it was run: as §1

| Sequence | self-aminoacylation (biotinyl-Phe-oxazolone) | self-aminoacylation (biotinyl-Ile-oxazolone) | self-aminoacylation (biotinyl-Met-oxazolone) | self-aminoacylation (biotinyl-Val-oxazolone) | self-aminoacylation (biotinyl-Leu-oxazolone) | self-aminoacylation (biotinyl-Trp-oxazolone) |
| --- | --- | --- | --- | --- | --- | --- |
| AAGUUUGCUAAUAGCCGUAAG [Fam3.1 aminoacylation ribozyme variant] | 18.2 | 1.3 | 1.39 | 1.36 | 0.898 | 7.16 |
| CCACUUCAAACACUCGGUCUG [Fam1A.1 aminoacylation ribozyme variant] | 4.37 | 1.45 | 1.75 | 2.14 | 1.73 | 1.5 |
| CCACGCUUCAACCAAUCGGUC [Fam1B.1 aminoacylation ribozyme variant] | 65.2 | 1.16 | 1.37 | 1.55 | 1.99 | 40.4 |
| UUACUUCAAACAAUCGGGCUG [Fam1A.1 aminoacylation ribozyme variant] | 8.04 | 1.76 | 1.93 | 1.66 | 2.22 | 7.54 |
| AUGACCUUGGUCAUCGAGUGA [Fam2.1 aminoacylation ribozyme variant] | 22.3 | 3.22 | 5.23 | 3.1 | 5.27 | 6.29 |
| CUACUUCAGACAAUCGGUGUG [Fam1A.1 aminoacylation ribozyme variant] | 3.43 | 1.23 | 1.57 | 1.4 | 1.5 | 1.7 |
| CCACACUUUAAGCAAUCAGUC [Fam1B.1 aminoacylation ribozyme variant] | 1.03 | 0.76 | 0.541 | 0.874 | 0.69 | 0.749 |
| CUACUCCAAACUAUCGGUCUG [Fam1A.1 aminoacylation ribozyme variant] | 0.747 | 0.926 | 0.806 | 1.07 | 0.872 | 0.822 |
| AAGUUUGCUAAUGGUCCCAAG [Fam3.1 aminoacylation ribozyme variant] | 1.11 | 0.977 | 0.976 | 1 | 0.908 | 1.21 |
| AAGUUCGCUAAUAGUAGCAAG [Fam3.1 aminoacylation ribozyme variant] | 3.5 | 1.67 | 1.55 | 1.26 | 1.28 | 1.24 |
| AUUCACAUAGGUCUUCGGGUG [Fam2.2 aminoacylation ribozyme variant] | 39.4 | 4.26 | 4.21 | 4.59 | 5.35 | 5.51 |
| CUUCACCCAGGUCAUCGGGUG [Fam2.2 aminoacylation ribozyme variant] | 25.2 | 2.29 | 4.41 | 3.34 | 3.23 | 3.73 |
| CUACUUCAAAUAAACGGUCUG [Fam1A.1 aminoacylation ribozyme variant] | 0.881 | 0.719 | 0.537 | 0.777 | 0.71 | 0.692 |
| CCACACUACAAUCAAUCGGUC [Fam1B.1 aminoacylation ribozyme variant] | 1.18 | 0.797 | 0.663 | 0.877 | 0.688 | 0.811 |
| CCAGACUUCAAGCAAUCGGUG [Fam1B.1 aminoacylation ribozyme variant] | 29.2 | 4.56 | 6.21 | 4.1 | 8.51 | 7.25 |
| AUUAACCUGGUCAACGAGUGA [Fam2.1 aminoacylation ribozyme variant] | 22.5 | 2.78 | 5.37 | 2.85 | 5.45 | 6.7 |
| CCUCACUCCAAGCAAUCGGUC [Fam1B.1 aminoacylation ribozyme variant] | 5.18 | 1.03 | 0.767 | 0.947 | 0.915 | 2.39 |
| CUAGUCCAAACAAUCGGUCUG [Fam1A.1 aminoacylation ribozyme variant] | 1.03 | 0.963 | 0.736 | 0.767 | 0.755 | 1.01 |
| AAGUUGGCUAAUACUCGCAAG [Fam3.1 aminoacylation ribozyme variant] | 1.44 | 1.39 | 1.2 | 1.39 | 0.979 | 1.45 |
| CAACACUUUAAGCAAUCGGUC [Fam1B.1 aminoacylation ribozyme variant] | 1.03 | 0.96 | 0.762 | 0.846 | 0.854 | 0.886 |
| CCAAACUUCAAGAAAUCGGUC [Fam1B.1 aminoacylation ribozyme variant] | 6.01 | 0.936 | 0.927 | 0.84 | 0.986 | 5.02 |
| AUUCACCUAGACCAUCGGGUG [Fam2.2 aminoacylation ribozyme variant] | 22.4 | 2.48 | 4.26 | 3.62 | 5.27 | 3.81 |
| CCACACUUCAACCAAUCGGAC [Fam1B.1 aminoacylation ribozyme variant] | 2.28 | 0.897 | 0.789 | 1.02 | 0.981 | 1.26 |
| AUUGCCCUGGUUAUCGAGUGA [Fam2.1 aminoacylation ribozyme variant] | 58.7 | 4.09 | 8.87 | 4.17 | 9.13 | 10.7 |
| AAGUUUGCUAUUGGUCGCAAG [Fam3.1 aminoacylation ribozyme variant] | 1.46 | 0.787 | 0.756 | 0.76 | 1.05 | 0.66 |
| AAGUUUACUAUUAGUCGCAAG [Fam3.1 aminoacylation ribozyme variant] | 2.72 | 1.83 | 1.59 | 1.76 | 1.49 | 2.02 |

| Sequence | self-aminoacylation (biotinyl-Phe-oxazolone) | self-aminoacylation (biotinyl-Ile-oxazolone) | self-aminoacylation (biotinyl-Met-oxazolone) | self-aminoacylation (biotinyl-Val-oxazolone) | self-aminoacylation (biotinyl-Leu-oxazolone) | self-aminoacylation (biotinyl-Trp-oxazolone) |
| --- | --- | --- | --- | --- | --- | --- |
| AUUACCCUGGUCAUUGAGGGA [Fam2.1 aminoacylation ribozyme variant] | 1.13 | 1.23 | 1.25 | 1.51 | 1.25 | 2.06 |
| AUUACCCUGGGCACCGAGUGA [Fam2.1 aminoacylation ribozyme variant] | 37.9 | 3.37 | 6.11 | 2.84 | 6.68 | 5.46 |
| AUCCACCUAGGUCAUCGGGGG [Fam2.2 aminoacylation ribozyme variant] | 2.86 | 4.14 | 3.97 | 2.77 | 5.3 | 4.13 |
| ACACACUUCAAACAAUCGGUC [Fam1B.1 aminoacylation ribozyme variant] | 65.1 | 1.73 | 1.38 | 1.79 | 2.39 | 40.6 |
| CUACUUCAAACAAUCGUUCAG [Fam1A.1 aminoacylation ribozyme variant] | 0.81 | 0.658 | 0.566 | 0.769 | 0.497 | 0.523 |
| AAGUGUGCUACUAGUCGCAAG [Fam3.1 aminoacylation ribozyme variant] | 1.71 | 1.29 | 1.33 | 1.04 | 0.938 | 1.41 |
| AUUACCCUAGGCAUCGAGUGA [Fam2.1 aminoacylation ribozyme variant] | 18.1 | 2.47 | 5.3 | 2.68 | 5.37 | 6.47 |
| CCACUCUUCAAGCAGUCGGUC [Fam1B.1 aminoacylation ribozyme variant] | 1.07 | 1.04 | 1.03 | 1.1 | 1.24 | 1.28 |
| AAGUUUGCUAAUUGUCGCGAG [Fam3.1 aminoacylation ribozyme variant] | 17.4 | 2.04 | 1.75 | 1.68 | 2.02 | 2.7 |
| AUUACCCUGUUCAUCGAGUUA [Fam2.1 aminoacylation ribozyme variant] | 0.909 | 1.19 | 1.13 | 1.12 | 1.12 | 0.616 |
| CUACUUCACACAAUCGGUCUG [Fam1A.1 aminoacylation ribozyme variant] | 0.869 | 0.775 | 0.685 | 0.811 | 0.694 | 0.689 |
| AUUACCCUGGCAAUCGAGUGA [Fam2.1 aminoacylation ribozyme variant] | 28.2 | 2.78 | 4.83 | 3.02 | 5.38 | 5.92 |
| CCACAAUUCAAGCAAUGGGUC [Fam1B.1 aminoacylation ribozyme variant] | 0.531 | 1.22 | 1.13 | 1.03 | 1.17 | 0.734 |
| AUUCACCUUGAUCAUCGGGUG [Fam2.2 aminoacylation ribozyme variant] | 19 | 2.22 | 3.26 | 2.6 | 3.83 | 4.07 |
| CCACAAUUCAAGCAAUCGUUC [Fam1B.1 aminoacylation ribozyme variant] | 1.06 | 0.909 | 0.815 | 0.864 | 0.713 | 0.719 |
| CCACACAUCAACCAAUCGGUC [Fam1B.1 aminoacylation ribozyme variant] | 1.2 | 0.785 | 0.622 | 0.745 | 0.487 | 1.26 |
| AUUACCCGGGACAUCGAGUGA [Fam2.1 aminoacylation ribozyme variant] | 80.3 | 4.52 | 10.5 | 5.01 | 11.2 | 12.3 |
| AUUACCCUGGUCACCGAGUGG [Fam2.1 aminoacylation ribozyme variant] | 7.88 | 1.57 | 2.6 | 2.08 | 3.56 | 3.23 |
| CCACAAUUAAAGCAAUCGGUC [Fam1B.1 aminoacylation ribozyme variant] | 0.833 | 1.13 | 0.88 | 1.13 | 0.881 | 0.66 |
| CCACACAUCAAGCAAUCAGUC [Fam1B.1 aminoacylation ribozyme variant] | 1.22 | 0.82 | 0.664 | 0.708 | 0.708 | 0.575 |
| AUUCCCCUAGGUCACCGGGUG [Fam2.2 aminoacylation ribozyme variant] | 163 | 13.9 | 20.3 | 13.4 | 26.2 | 21.7 |
| UCACACUUCAAGCAAUCGUUC [Fam1B.1 aminoacylation ribozyme variant] | 1.45 | 0.696 | 0.602 | 0.792 | 0.611 | 0.608 |
| AUUACCCUGGCCAGCGAGUGA [Fam2.1 aminoacylation ribozyme variant] | 18 | 2.73 | 5 | 3.29 | 4.29 | 4.9 |
| CUACUUCAAAUACUCGGUCUG [Fam1A.1 aminoacylation ribozyme variant] | 0.622 | 0.832 | 0.972 | 0.84 | 0.807 | 0.71 |
| AUUCCCCUGGUCAUGGAGUGA [Fam2.1 aminoacylation ribozyme variant] | 16.3 | 2.92 | 3.85 | 3.12 | 3.99 | 4.27 |
